Data as given in patent US20240060046A1.

Target: CD20 on CD20+ human Burkitt's lymphoma cell lines (Ramos, Raji) (human) (UniProt P11836)
Assay: cell-based or functional assay

UniProt P11836, sequence (P11836 whole entry): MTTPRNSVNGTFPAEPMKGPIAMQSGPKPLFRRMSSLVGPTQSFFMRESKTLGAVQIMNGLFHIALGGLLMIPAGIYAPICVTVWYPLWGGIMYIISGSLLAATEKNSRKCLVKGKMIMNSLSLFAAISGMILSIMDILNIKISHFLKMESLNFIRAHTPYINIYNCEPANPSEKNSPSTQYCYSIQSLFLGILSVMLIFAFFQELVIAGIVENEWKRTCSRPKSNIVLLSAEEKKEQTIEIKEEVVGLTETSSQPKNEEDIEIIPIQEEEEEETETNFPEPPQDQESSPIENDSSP

lysis of Raji target cells at the end of 72 hour co-culture, AB-101 combined with rituximab, E:T 1:1: 90% | lysis of Ramos target cells at the end of 72 hrs co-culture, AB-101 combined with rituximab, E:T 1:1: 80%
Substance: Rituximab (Mabthera or Rituxan) (antibody)
Viable Raji cells (%), long-term ADCC, AB-101 + RTX, 24 hrs (mean of 9 AB-101 batches): 23.9% | Viable Raji cells (%), long-term ADCC, AB-101 + RTX, 48 hrs (mean of 9 AB-101 batches): 11.7% | Viable Raji cells (%), long-term ADCC, AB-101 + RTX, 72 hrs (mean of 9 AB-101 batches): 10.1% | Viable Ramos cells (%), long-term ADCC, AB-101 + RTX, 24 hrs (mean of 9 AB-101 batches): 47.6% | Viable Ramos cells (%), long-term ADCC, AB-101 + RTX, 48 hrs (mean of 9 AB-101 batches): 28.1% | Viable Ramos cells (%), long-term ADCC, AB-101 + RTX, 72 hrs (mean of 9 AB-101 batches): 19%
